The values that follow come from patent US20110189729.

This data set deals with lambda integrase Int-h/218 h/218 mutant (substitutions not given) (Bacteriophage lambda) (UniProt P03700). In words: cell_activity. Conditions: CHO-DG44.

As for “GCTGTTACAGGTCACTAATACCATCTACGTAGTTGATTCATATTGTCTGCATATCTTGTGTTTTACAGTATTATCTAGTCTGTTTTTTATCCAAAATCTAATTTATTATATTGATATTTATATCATTTTACGTTTCTCGTTCAGCTTTTTTATACTAAGTTGGCATTATAAAAAAGCATTGCTTATCAATTTGTTGCAACGAACAGGTCACTATCAGTCAAAATATAATCATTATTTGATTTC / GAAATCAAATAATGATTATATTTTGACTGATAGTGACCTGTTCGTTGCAACAAATTGATAAGCAATGCTTTTTTATAATGCCAACTTAGTATAAAAAAGCTGAACGAGAAACGTAAAATGATATAAATATCAATATAATAAATTAGATTTTGGATAAAAAACAGACTAGATAATACTGTAAAACACAAGATATGCAGACAATATGAATCAACTACGTAGATGGTATTAGTGACCTGTAACAGC / GCTGTTACAGGTCACTAATACCATCTACGTAGTTGATTCATATTGTCTGCATATCTTGTGTTTTACAGTATTATCTAGTCTGTTTTTTATCCAAAATCTAATTTATTATATTGATATTTATATCATTTTACGTTTCTCGTTCAGCTTTTTTATACTAAGTTGGCATTATAAAAAAGCATTGCTTATCAATTTGTTGCAACGAACAGGTCACTATCAGTCAAAATATAATCATTATTTGATTTC / GAAATCAAATAATGATTATATTTTGACTGATAGTGACCTGTTCGTTGCAACAAATTGATAAGCAATGCTTTTTTATAATGCCAACTTAGTATAAAAAAGCTGAACGAGAAACGTAAAATGATATAAATATCAATATAATAAATTAGATTTTGGATAAAAAACAGACTAGATAATACTGTAAAACACAAGATATGCAGACAATATGAATCAACTACGTAGATGGTATTAGTGACCTGTAACAGC [attP.b ; attP.b]”, where the note is “attP.b x attP.b, with IHF, 0.4% without IHF plasmid, 2% in Example 2 cotransfection without IHF (p190)”, the activity (% fluorescent cells) is 1.5.

For “TCTGTTACAGGTCACTAATACCATCTAAGTAGTTGATTCATAGTGACTGCATATGTTGTGTTTTACAGTATTATGTAGTCTGTTTTTTATGCAAAATCTAATTTAATATATTGATATTTATATCATTTTACGTTTCTCGTTCAGCTTTTTTATACTAAGTTGGCATTATAAAAAAGCATTGCTTATCAATTTGTTGCAACGAACAGGTCACTATCAGTCAAAATAAAATCATTATTTGATTTC / GAAATCAAATAATGATTTTATTTTGACTGATAGTGACCTGTTCGTTGCAACAAATTGATAAGCAATGCTTTTTTATAATGCCAACTTAGTATAAAAAAGCTGAACGAGAAACGTAAAATGATATAAATATCAATATATTAAATTAGATTTTGCATAAAAAACAGACTACATAATACTGTAAAACACAACATATGCAGTCACTATGAATCAACTACTTAGATGGTATTAGTGACCTGTAACAGA / CTGCTTTTTTATACTAACTTG / CAAGTTAGTATAAAAAAGCAG [attP ; attB]”, for the setting “attP x attB, with IHF, 1.1% without IHF plasmid”, the activity (% fluorescent cells) amounted to 1.7.

“CTGCTTTTTTATACTAAGTTGGCATTATAAAAAAGCATTGCTTATCAATTTGTTGCAACGAACAGGTCACTATCAGTCAAAATATAATCATTATTTGATTTC / GAAATCAAATAATGATTATATTTTGACTGATAGTGACCTGTTCGTTGCAACAAATTGATAAGCAATGCTTTTTTATAATGCCAACTTAGTATAAAAAAGCAG / CTGCTTTTTTATACTAACTTG / CAAGTTAGTATAAAAAAGCAG [attL.a ; attB]” yielded an activity (% fluorescent cells) (attL.a x attB, with IHF and XIS, PCR verified) of 2.

The sequence “CTGCTTTTTTATACTAAGTTGGCATTATAAAAAAGCATTGCTTATCAATTTGTTGCAACGAACAGGTCACTATCAGTCAAAATATAATCATTATTTGATTTC / GAAATCAAATAATGATTATATTTTGACTGATAGTGACCTGTTCGTTGCAACAAATTGATAAGCAATGCTTTTTTATAATGCCAACTTAGTATAAAAAAGCAG / GCTGTTACAGGTCACTAATACCATCTACGTAGTTGATTCATATTGTCTGCATATCTTGTGTTTTACAGTATTATCTAGTCTGTTTTTTATCCAAAATCTAATTTATTATATTGATATTTATATCATTTTACGTTTCTCGTTCAGCTTTTTTATACTAACTTG / CAAGTTAGTATAAAAAAGCTGAACGAGAAACGTAAAATGATATAAATATCAATATAATAAATTAGATTTTGGATAAAAAACAGACTAGATAATACTGTAAAACACAAGATATGCAGACAATATGAATCAACTACGTAGATGGTATTAGTGACCTGTAACAGC [attL.a ; attR.b]” came in with an activity (% fluorescent cells) (attL.a x attR.b, with IHF and XIS, PCR verified) of 1.2.

For “TCTGTTACAGGTCACTAATACCATCTAAGTAGTTGATTCATAGTGACTGCATATGTTGTGTTTTACAGTATTATGTAGTCTGTTTTTTATGCAAAATCTAATTTAATATATTGATATTTATATCATTTTACGTTTCTCGTTCAGCTTTTTTATACTAAGTTGGCATTATAAAAAAGCATTGCTTATCAATTTGTTGCAACGAACAGGTCACTATCAGTCAAAATAAAATCATTATTTGATTTC / GAAATCAAATAATGATTTTATTTTGACTGATAGTGACCTGTTCGTTGCAACAAATTGATAAGCAATGCTTTTTTATAATGCCAACTTAGTATAAAAAAGCTGAACGAGAAACGTAAAATGATATAAATATCAATATATTAAATTAGATTTTGCATAAAAAACAGACTACATAATACTGTAAAACACAACATATGCAGTCACTATGAATCAACTACTTAGATGGTATTAGTGACCTGTAACAGA / TCTGTTACAGGTCACTAATACCATCTAAGTAGTTGATTCATAGTGACTGCATATGTTGTGTTTTACAGTATTATGTAGTCTGTTTTTTATGCAAAATCTAATTTAATATATTGATATTTATATCATTTTACGTTTCTCGTTCAGCTTTTTTATACTAACTTG / CAAGTTAGTATAAAAAAGCTGAACGAGAAACGTAAAATGATATAAATATCAATATATTAAATTAGATTTTGCATAAAAAACAGACTACATAATACTGTAAAACACAACATATGCAGTCACTATGAATCAACTACTTAGATGGTATTAGTGACCTGTAACAGA [attP ; attR]”, the activity (% fluorescent cells) (attP x attR, with IHF and XIS) was 2.3.

Under “attP x attR.b, with IHF and XIS”, “TCTGTTACAGGTCACTAATACCATCTAAGTAGTTGATTCATAGTGACTGCATATGTTGTGTTTTACAGTATTATGTAGTCTGTTTTTTATGCAAAATCTAATTTAATATATTGATATTTATATCATTTTACGTTTCTCGTTCAGCTTTTTTATACTAAGTTGGCATTATAAAAAAGCATTGCTTATCAATTTGTTGCAACGAACAGGTCACTATCAGTCAAAATAAAATCATTATTTGATTTC / GAAATCAAATAATGATTTTATTTTGACTGATAGTGACCTGTTCGTTGCAACAAATTGATAAGCAATGCTTTTTTATAATGCCAACTTAGTATAAAAAAGCTGAACGAGAAACGTAAAATGATATAAATATCAATATATTAAATTAGATTTTGCATAAAAAACAGACTACATAATACTGTAAAACACAACATATGCAGTCACTATGAATCAACTACTTAGATGGTATTAGTGACCTGTAACAGA / GCTGTTACAGGTCACTAATACCATCTACGTAGTTGATTCATATTGTCTGCATATCTTGTGTTTTACAGTATTATCTAGTCTGTTTTTTATCCAAAATCTAATTTATTATATTGATATTTATATCATTTTACGTTTCTCGTTCAGCTTTTTTATACTAACTTG / CAAGTTAGTATAAAAAAGCTGAACGAGAAACGTAAAATGATATAAATATCAATATAATAAATTAGATTTTGGATAAAAAACAGACTAGATAATACTGTAAAACACAAGATATGCAGACAATATGAATCAACTACGTAGATGGTATTAGTGACCTGTAACAGC [attP ; attR.b]” showed an activity (% fluorescent cells) of 1.1.

As to “TCTGTTACAGGTCACTAATACCATCTAAGTAGTTGATTCATAGTGACTGCATATGTTGTGTTTTACAGTATTATGTAGTCTGTTTTTTATGCAAAATCTAATTTAATATATTGATATTTATATCATTTTACGTTTCTCGTTCAGCTTTTTTATACTAAGTTGGCATTATAAAAAAGCATTGCTTATCAATTTGTTGCAACGAACAGGTCACTATCAGTCAAAATAAAATCATTATTTGATTTC / GAAATCAAATAATGATTTTATTTTGACTGATAGTGACCTGTTCGTTGCAACAAATTGATAAGCAATGCTTTTTTATAATGCCAACTTAGTATAAAAAAGCTGAACGAGAAACGTAAAATGATATAAATATCAATATATTAAATTAGATTTTGCATAAAAAACAGACTACATAATACTGTAAAACACAACATATGCAGTCACTATGAATCAACTACTTAGATGGTATTAGTGACCTGTAACAGA / TCTGTTACAGGTCACTAATACCATCTAAGTAGTTGATTCATAGTGACTGCATATGTTGTGTTTTACAGTATTATGTAGTCTGTTTTTTATGCAAAATCTAATTTAATATATTGATATTTATATCATTTTACGTTTCTCGTTCAGCTTTTTTATACTAAGTTGGCATTATAAAAAAGCATTGCTTATCAATTTGTTGCAACGAACAGGTCACTATCAGTCAAAATAAAATCATTATTTGATTTC / GAAATCAAATAATGATTTTATTTTGACTGATAGTGACCTGTTCGTTGCAACAAATTGATAAGCAATGCTTTTTTATAATGCCAACTTAGTATAAAAAAGCTGAACGAGAAACGTAAAATGATATAAATATCAATATATTAAATTAGATTTTGCATAAAAAACAGACTACATAATACTGTAAAACACAACATATGCAGTCACTATGAATCAACTACTTAGATGGTATTAGTGACCTGTAACAGA [attP ; attP]”, the activity (% fluorescent cells) (attP x attP, no IHF plasmid) was found to be 1.9.

As to “TCTGTTACAGGTCACTAATACCATCTAAGTAGTTGATTCATAGTGACTGCATATGTTGTGTTTTACAGTATTATGTAGTCTGTTTTTTATGCAAAATCTAATTTAATATATTGATATTTATATCATTTTACGTTTCTCGTTCAGCTTTTTTATACTAAGTTGGCATTATAAAAAAGCATTGCTTATCAATTTGTTGCAACGAACAGGTCACTATCAGTCAAAATAAAATCATTATTTGATTTC / GAAATCAAATAATGATTTTATTTTGACTGATAGTGACCTGTTCGTTGCAACAAATTGATAAGCAATGCTTTTTTATAATGCCAACTTAGTATAAAAAAGCTGAACGAGAAACGTAAAATGATATAAATATCAATATATTAAATTAGATTTTGCATAAAAAACAGACTACATAATACTGTAAAACACAACATATGCAGTCACTATGAATCAACTACTTAGATGGTATTAGTGACCTGTAACAGA / GCTGTTACAGGTCACTAATACCATCTATGTAGTTGATTCATATTGTCTGCATATCTTGTGTTTTACAGTATTATCTAGTCTGTTTTTTATCCAAAATCTAATTTATTATATTGATATTTATATCATTTTACGTTTCTCGTTCAGCTTTTTTATACTAACTTG / CAAGTTAGTATAAAAAAGCTGAACGAGAAACGTAAAATGATATAAATATCAATATAATAAATTAGATTTTGGATAAAAAACAGACTAGATAATACTGTAAAACACAAGATATGCAGACAATATGAATCAACTACATAGATGGTATTAGTGACCTGTAACAGC [attP ; attR.a]”, for the setting “attP x attR.a, with IHF and XIS”, the activity (% fluorescent cells) came to 1.5.

“CTGCTTTTTTATACTAAGTTGGCATTATAAAAAAGCATTGCTTATCAATTTGTTGCAACGAACAGGTCACTATCAGTCAAAATAAAATCATTATTTGATTTC / GAAATCAAATAATGATTTTATTTTGACTGATAGTGACCTGTTCGTTGCAACAAATTGATAAGCAATGCTTTTTTATAATGCCAACTTAGTATAAAAAAGCAG / CTGCTTTTTTATACTAACTTG / CAAGTTAGTATAAAAAAGCAG [attL ; attB]” displayed an activity (% fluorescent cells) (attL x attB, with IHF and XIS, PCR verified) of 2.3.
